From patent US20240270846A1 (published 2024)
Where a chain is given by its changes, count along the chain named. Names and notes keep the numbering of the source.

B1: CE115HA000/GLS3000 F55K one-arm antibody (antibody, human IgG1, kappa, L234A L235A, N297A, name in Kabat numbering)
heavy: QVQLVESGGGVVQPGRSLRLSCAASGFTFSNAWMHWVRQAPGKGLEWVAQIKAKSNNYATYYAESVKGRFTISRDDSKNSLYLQMNSLKTEDTAVYYCRYVHYGAYYGVDAWGQGTTVTVSSASTKGPSVFPLAPSSKSTSGGTAALGCLVKDYFPEPVTVSWNSGALTSGVHTFPAVLQSSGLYSLSSVVTVPSSSLGTQTYICNVNHKPSNTKVDKKVEPKSCDKTHTCPPCPAPEAAGGPSVFLFPPKPKDTLMISRTPEVTCVVVDVSHEDPEVKFNWYVDGVEVHNAKTKPREEQYASTYRVVSVLTVLHQDWLNGKEYKCKVSNKALPAPIEKTISKAKGQPREPQVYTLPPSRCELTKNQVSLSCAVKGFYPSDIAVEWESNGQPENNYKTTPPVLDSDGSFFLVSKLTVDKSRWQQGNVFSCSVMHEALHNHYTQKSLSLSPDYKDDDDK
chain: EPKSSDKTHTCPPCPAPELLGGPSVFLFPPKPKDTLMISRTPEVTCVVVDVSHEDPEVKFNWYVDGVEVHNAKTKPREEQYNSTYRVVSVLTVLHQDWLNGKEYKCKVSNKALPAPIEKTISKAKGQPREPQVCTLPPSRDELTKNQVSLWCLVKGFYPSDIAVEWESNGQPENNYKTTPPVLDSDGSFFLYSKLTVDKSRWQQGNVFSCSVMHEALHNRYTQKSLSLSP
light: DIVMTQSPLSLPVTPGEPASISCRSSQSLVHSNRNTYLHWYQQKPGQAPRLLIYKVSNRKSGVPDRFSGSGSGTDFTLKISRVEAEDVGVYYCGQGTQVPYTFGQGTKLEIKRTVAAPSVFIFPPSDEQLKSGTASVVCLLNNFYPREAKVQWKVDNALQSGNSQESVTEQDSKDSTYSLSSTLTLSKADYEKHKVYACEVTHQGLSSPVTKSFNRGEC
notes: one-arm IgG1
B2: CE115HA000/GLS3000 G89E one-arm antibody (antibody, human IgG1, kappa, L234A L235A, N297A, name in Kabat numbering)
heavy: B1 heavy
chain: B1 chain
light: B1 light with K60F, G94E
notes: one-arm IgG1
B3: CE115HA000/GLS3000 G91A one-arm antibody (antibody, human IgG1, kappa, L234A L235A, N297A, name in Kabat numbering)
heavy: B1 heavy
chain: B1 chain
light: B1 light with K60F, G96A
notes: one-arm IgG1
B4: CE115HA000/GLS3000 F55T one-arm antibody (antibody, human IgG1, kappa, L234A L235A, N297A, name in Kabat numbering)
heavy: B1 heavy
chain: B1 chain
light: B1 light with K60T
notes: one-arm IgG1
B5: CE115HA000/GLS3000 F55S one-arm antibody (antibody, human IgG1, kappa, L234A L235A, N297A, name in Kabat numbering)
heavy: B1 heavy
chain: B1 chain
light: B1 light with K60S
notes: one-arm IgG1
B6: CE115HA000/GLS3000 G89I one-arm antibody (antibody, human IgG1, kappa, L234A L235A, N297A, name in Kabat numbering)
heavy: B1 heavy
chain: B1 chain
light: B1 light with K60F, G94I
notes: one-arm IgG1
B7: CE115HA000/GLS3000 F55P one-arm antibody (antibody, human IgG1, kappa, L234A L235A, N297A, name in Kabat numbering)
heavy: B1 heavy
chain: B1 chain
light: B1 light with K60P
notes: one-arm IgG1
B8: CE115HA000/GLS3000 F55L one-arm antibody (antibody, human IgG1, kappa, L234A L235A, N297A, name in Kabat numbering)
heavy: B1 heavy
chain: B1 chain
light: B1 light with K60L
notes: one-arm IgG1
B9: CE115HA000/GLS3000 G89A one-arm antibody (antibody, human IgG1, kappa, L234A L235A, N297A, name in Kabat numbering)
heavy: B1 heavy
chain: B1 chain
light: B1 light with K60F, G94A
notes: one-arm IgG1
B10: CE115HA000/GLS3000 F55V one-arm antibody (antibody, human IgG1, kappa, L234A L235A, N297A, name in Kabat numbering)
heavy: B1 heavy
chain: B1 chain
light: B1 light with K60V
notes: one-arm IgG1
B11: CE115HA000/GLS3000 G91D one-arm antibody (antibody, human IgG1, kappa, L234A L235A, N297A, name in Kabat numbering)
heavy: B1 heavy
chain: B1 chain
light: B1 light with K60F, G96D
notes: one-arm IgG1
B12: CE115HA000/GLS3000 F55M one-arm antibody (antibody, human IgG1, kappa, L234A L235A, N297A, name in Kabat numbering)
heavy: B1 heavy
chain: B1 chain
light: B1 light with K60M
notes: one-arm IgG1
B13: CE115HA000/GLS3000 F55Y one-arm antibody (antibody, human IgG1, kappa, L234A L235A, N297A, name in Kabat numbering)
heavy: B1 heavy
chain: B1 chain
light: B1 light with K60Y
notes: one-arm IgG1
B14: CE115HA000/GLS3000 F55Q one-arm antibody (antibody, human IgG1, kappa, L234A L235A, N297A, name in Kabat numbering)
heavy: B1 heavy
chain: B1 chain
light: B1 light with K60Q
notes: one-arm IgG1
B15: CE115HA000/GLS3000 G89H one-arm antibody (antibody, human IgG1, kappa, L234A L235A, N297A, name in Kabat numbering)
heavy: B1 heavy
chain: B1 chain
light: B1 light with K60F, G94H
notes: one-arm IgG1
B16: CE115HA000/GLS3000 G89D one-arm antibody (antibody, human IgG1, kappa, L234A L235A, N297A, name in Kabat numbering)
heavy: B1 heavy
chain: B1 chain
light: B1 light with K60F, G94D
notes: one-arm IgG1
B17: CE115HA000/GLS3000 F55N one-arm antibody (antibody, human IgG1, kappa, L234A L235A, N297A, name in Kabat numbering)
heavy: B1 heavy
chain: B1 chain
light: B1 light with K60N
notes: one-arm IgG1
B18: CE115HA000/GLS3000 F55W one-arm antibody (antibody, human IgG1, kappa, L234A L235A, N297A, name in Kabat numbering)
heavy: B1 heavy
chain: B1 chain
light: B1 light with K60W
notes: one-arm IgG1
B19: CE115HA000/GLS3000 G89N one-arm antibody (antibody, human IgG1, kappa, L234A L235A, N297A, name in Kabat numbering)
heavy: B1 heavy
chain: B1 chain
light: B1 light with K60F, G94N
notes: one-arm IgG1
B20: CE115HA000/GLS3000 G89L one-arm antibody (antibody, human IgG1, kappa, L234A L235A, N297A, name in Kabat numbering)
heavy: B1 heavy
chain: B1 chain
light: B1 light with K60F, G94L
notes: one-arm IgG1
B21: CE115HA000/GLS3000 G89F one-arm antibody (antibody, human IgG1, kappa, L234A L235A, N297A, name in Kabat numbering)
heavy: B1 heavy
chain: B1 chain
light: B1 light with K60F, G94F
notes: one-arm IgG1
B22: CE115HA000/GLS3000 G89M one-arm antibody (antibody, human IgG1, kappa, L234A L235A, N297A, name in Kabat numbering)
heavy: B1 heavy
chain: B1 chain
light: B1 light with K60F, G94M
notes: one-arm IgG1
B23: CE115HA000/GLS3000 G89K one-arm antibody (antibody, human IgG1, kappa, L234A L235A, N297A, name in Kabat numbering)
heavy: B1 heavy
chain: B1 chain
light: B1 light with K60F, G94K
notes: one-arm IgG1
B24: CE115HA000/GLS3000 F55R one-arm antibody (antibody, human IgG1, kappa, L234A L235A, N297A, name in Kabat numbering)
heavy: B1 heavy
chain: B1 chain
light: B1 light with K60R
notes: one-arm IgG1

What follows are binders tested against T1, CD3 epsilon homodimer protein (UniProt P07766 23-126) (assay: SPR (Biacore T200), CD3e homodimer on CM4 chip, antibody as analyte; KD ratio vs unaltered GLS3000;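 further: CD3 epsilon homodimer amine-coupled to the sensor surface, antibodies injected as analyte at 25 °C with HBS-EP+ running buffer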).
T1 construct: also called CD3 (CD3 epsilon)
T1 sequence (P07766 23-126): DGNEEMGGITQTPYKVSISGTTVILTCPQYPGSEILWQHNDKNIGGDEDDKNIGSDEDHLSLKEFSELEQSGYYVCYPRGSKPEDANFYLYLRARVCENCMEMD

Row | KD ratio to GLS3000 | Binder
1 | 1.22 ratio | B1
2 | 34.6 ratio | B2
3 | 28.1 ratio | B3
4 | 2.42 ratio | B4
5 | 1.15 ratio | B5
6 | 1.11 ratio | B6
7 | 1.15 ratio | B7
8 | 1.43 ratio | B8
9 | 1.1 ratio | B9
10 | 1.12 ratio | B10
11 | 44.8 ratio | B11
12 | 1.29 ratio | B12
13 | 1.13 ratio | B13
14 | 1.09 ratio | B14
15 | 1.44 ratio | B15
16 | 1.96 ratio | B16
17 | 0.91 ratio | B17
18 | 1.72 ratio | B18
19 | 1.2 ratio | B19
20 | 2.38 ratio | B20
21 | 3.34 ratio | B21
22 | 1.96 ratio | B22
23 | 1.8 ratio | B23
24 | 1.27 ratio | B24
